Experimental data as given in PMC3668167, “Ski-interacting protein (SKIP) interacts with androgen receptor in the nucleus and modulates androgen-dependent transcription” (BMC Biochemistry, 2013).

B1: HA-tagged Ski-interacting protein (SKIP-pCGN) (natural protein, human, UniProt Q13573 1-536, looked up)
chain: MALTSFLPAPTQLSQDQLEAEEKARSQRSRQTSLVSSRREPPPYGYRKGWIPRLLEDFGDGGAFPEIHVAQYPLDMGRKKKMSNALAIQVDSEGKIKYDAIARQGQSKDKVIYSKYTDLVPKEVMNADDPDLQRPDEEAIKEITEKTRVALEKSVSQKVAAAMPVRAADKLAPAQYIRYTPSQQGVAFNSGAKQRVIRMVEMQKDPMEPPRFKINKKIPRGPPSPPAPVMHSPSRKMTVKEQQEWKIPPCISNWKNAKGYTIPLDKRLAADGRGLQTVHINENFAKLAEALYIADRKAREAVEMRAQVERKMAQKEKEKHEEKLREMAQKARERRAGIKTHVEKEDGEARERDEIRHDRRKERQHDRNLSRAAPDKRSKLQRNENRDISEVIALGVPNPRTSNEVQYDQRLFNQSKGMDSGFAGGEDEIYNVYDQAWRGGKDMAQSIYRPSKNLDKDMYGDDLEARIKTNRFVPDKEFSGSDRRQRGREGPVQFEEDPFGLDKFLEEAKQHGGSKRPSDSSRPKEHEHEGKKRRKE
B2: VP16 activation domain fusion of AR residues 1-538 (pVP16-AR1-538) (domain or fragment, human, UniProt P10275 1-538, looked up)
chain: MEVQLGLGRVYPRPPSKTYRGAFQNLFQSVREVIQNPGPRHPEAASAAPPGASLLLLQQQQQQQQQQQQQQQQQQQQQQQETSPRQQQQQQGEDGSPQAHRRGPTGYLVLDEEQQPSQPQSALECHPERGCVPEPGAAVAASKGLPQQLPAPPDEDDSAAPSTLSLLGPTFPGLSSCSADLKDILSEASTMQLLQQQQQEAVSEGSSSGRAREASGAPTSSKDNYLGGTSTISDNAKELCKAVSVSMGLGVEALEHLSPGEQLRGDCMYAPLLGVPPAVRPTPCAPLAECKGSLLDDSAGKSTEDTAEYSPFKGGYTKGLEGESLGCSGSAAAGSSGTLELPSTLSLYKSGALDEAAAYQSRDYYNFPLALAGPPPPPPPPHPHARIKLENPLDYGSAWAAAAAQCRYGDLASLHGAGAAGPGSGSPSAAASSSWHTLFTAEEGQLYGPCGGGGGGGGGGGGGGGGGGGGGGGEAGAVAPYGYTRPPQGLAGQESDFTAPDVWYPGGMVSRVPYPSPTCVKSEMGPWMDSYSGPYGDM
notes: androgen receptor, human, N-terminal residues 1-538; also called AR N-terminus; source: HEK293, transfected, mammalian two-hybrid fusion

How the values were obtained:
[1] = target: T1, GAL4 DNA binding domain fusion of AR-LBD residues 642-917 (pM-GAL4DBD-AR642-917) (human, UniProt P10275 642-917); test: cell-based or functional assay
T1 sequence (looked up): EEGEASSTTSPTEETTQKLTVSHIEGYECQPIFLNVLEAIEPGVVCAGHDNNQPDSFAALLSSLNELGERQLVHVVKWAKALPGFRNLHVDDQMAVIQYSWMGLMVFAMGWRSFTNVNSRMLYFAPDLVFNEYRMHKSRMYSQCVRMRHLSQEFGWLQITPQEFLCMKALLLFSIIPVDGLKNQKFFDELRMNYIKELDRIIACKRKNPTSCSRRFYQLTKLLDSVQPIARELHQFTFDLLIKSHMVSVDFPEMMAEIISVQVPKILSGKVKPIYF

[2] = target: T2, GAL4 DNA binding domain fusion of the AR AF-1 fragment, residues 1-555 (pM-GAL4DBD-AR-AF1) (human, UniProt P10275 1-555); test: cell-based or functional assay
T2 sequence (looked up): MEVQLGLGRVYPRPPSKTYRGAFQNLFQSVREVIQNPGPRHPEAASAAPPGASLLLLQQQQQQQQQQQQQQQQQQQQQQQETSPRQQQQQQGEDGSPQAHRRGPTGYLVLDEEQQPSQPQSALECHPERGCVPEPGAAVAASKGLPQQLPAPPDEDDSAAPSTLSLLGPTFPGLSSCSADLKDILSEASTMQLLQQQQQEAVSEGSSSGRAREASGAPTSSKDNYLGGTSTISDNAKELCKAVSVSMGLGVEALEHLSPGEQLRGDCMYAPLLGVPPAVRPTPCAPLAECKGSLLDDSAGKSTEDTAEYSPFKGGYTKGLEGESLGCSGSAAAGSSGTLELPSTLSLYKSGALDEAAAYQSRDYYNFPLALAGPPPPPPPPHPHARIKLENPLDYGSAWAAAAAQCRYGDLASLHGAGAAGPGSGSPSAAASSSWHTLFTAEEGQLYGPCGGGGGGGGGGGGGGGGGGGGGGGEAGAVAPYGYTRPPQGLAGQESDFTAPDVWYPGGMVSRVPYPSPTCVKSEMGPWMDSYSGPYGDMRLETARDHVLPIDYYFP

[3] = target: T1, GAL4 DNA binding domain fusion of …; test: two-hybrid; mammalian two-hybrid in HEK293 cells, GAL4(5)E1bTATA-luciferase reporter, GAL4DBD-AR642-917 with pVP16-AR1-538, empty pCGN (no SKIP), 1 nM DHT; activity relative to empty vectors without DHT; details: partners not purified
[4] = target: T1, GAL4 DNA binding domain fusion of …; test: two-hybrid; mammalian two-hybrid in HEK293 cells, GAL4(5)E1bTATA-luciferase reporter, GAL4DBD-AR642-917 with pVP16-AR1-538, SKIP-pCGN co-expressed, 1 nM DHT; activity relative to empty vectors without DHT; details: partners not purified

Row | Binder | GAL4 luciferase reporter in HEK293 cells: ligand-dependent (1 nM DHT) activation of the AR-LBD 642-917 construct with overexpressed SKIP (Figure 2 column 7) [1] [fold] | mammalian one-hybrid luciferase reporter in HEK293 cells: AR-AF-1 (GAL4DBD-AR1-555) ligand-independent transcriptional activity with overexpressed SKIP against without SKIP [2] [fold] | relative luciferase activity, fold over control [3] [fold] | relative luciferase activity, fold over control (SKIP co-expressed) [4] [fold]
1 | B1 | 9 | ~5 |  | 
2 | B2 |  |  | 12 | ~300
